Broadly, the Km is the concentration of substrate that gives half-maximal velocity. By stoichiometry N is commonly meant the number of molecules, sites or subunits per partner or assembly.

Data set [1] has as its system N#CO. As to the kind of experiment: purified protein. The note with it: apparent Km; 0.05 to 3.0 mM potassium cyanate; bicarbonate-dependent.
Excerpt: cyanase activity (ammonium release), Lineweaver-Burk on Tl-Cyn
The target of data set [2] is cyanase from the thermophilic fungus Thermomyces lanuginosus (Tl-Cyn) (Thermomyces lanuginosus). The experiment in a line: crystal structure; sitting-drop vapour diffusion at 20 °C, protein 13 mg/mL; reservoir 2% Tacsimate (pH 8.0), 0.1 M Tris (pH 8.5), 16% PEG 3,350; malonate and formate bound in the active sites; 2.2 Å.

Turning to Tl-Cyn (Thermomyces lanuginosus), the Km in data set [1] was 360 ± 40 µM. As for “cyanase from the thermophilic fungus Thermomyces lanuginosus (Tl-Cyn) (enzyme)”, in data set [2], the stoichiometry N is 10.

The record behind these values is paper PMC7801690, “Crystal structure of a thermophilic fungal cyanase and its implications on the catalytic mechanism for bioremediation” (Scientific Reports, 2021).
